Test results taken from patent publication US20220143148A1, “COMPOSITIONS AND METHODS FOR MODULATING CGRP SIGNALING TO REGULATE INTESTINAL INNATE LYMPHOID CELLS” (The Broad Institute, Inc., priority 2019, published 2022).

Test system: small intestinal immune cells
Test: Droplet-based scRNA-seq of small intestinal immune cells (LP and PP), OVA vs PBS, clustering and differential expression
Assay type: in vivo, mouse
Details: cluster ID 4, PP
Excerpt: To comprehensively characterize small intestinal immune cells, Applicants generated scRNA-Seq profiles for 58,067 immune cells collected from lamina propria (LP) and Peyer's patch (PP) regions at steady state and after induction of a type 2 inflammatory reaction to ovalbumin (OVA) (Brandt et al., 2003) (FIGS. 1A and 8A). To ensure sufficient representation of rare cells, Applicants combined a normalization strategy—removing by flow sorting either a portion of IgD+ naïve B cells, which are the most abundant cell type in PPs, or all CD19+ and CD3+ T cells (FIG. 8B, Methods)—with profiling of a sufficiently large number of cells number (P>0.99 to recover at least 15 cells from each cluster, Methods) by massively parallel scRNA-seq (Haber et al., 2017) (Methods). Applicants obtained 36,797 and 21,270 high quality cells passing initial filtering (Methods) from PP and LP regions, respectively.
Overall, Applicants annotated 27 cell subsets across the two compartments, spanning T cells, B cells, ILCs, dendritic cells (DCs), myeloid cells and stromal cells, in frequencies ranging from 0.07% to 14%. Briefly, Applicants first partitioned the cells from the PP regions by unsupervised clustering (Methods) into 46 clusters, retained the 97% of cells that were robustly assigned cell identities in each cluster (Methods), assigned the cells from the LP regions to the 46 clusters using a classifier (Methods), and visualized the data with scvis (Ding et al., 2018), a deep generative model-based method (FIGS. 1B and 8C, Methods). Next, Applicants identified genes that were differentially expressed between the cells in each cluster and the remaining cells (Table 1, Methods), as well as between pairs of clusters (Table 2), to elucidate identities of similar cell types/states. Applicants excluded from downstream analysis clusters mostly consisting of contaminants from epithelium, likely doublets, or cells with a small number of Unique Molecular Identifiers (UMIs) (FIGS. 1C and 8D), or lacking distinct markers (Methods). Altogether, Applicants retained 27 clusters spanning 85% of the cells and each associated with distinct marker genes (FIG. 8E, Methods).
To induce allergic reaction to OVA, 6 to 7 weeks old mice were sensitized twice, two weeks apart, with 50 μg of OVA plus 1 mg of aluminum potassium sulfate adjuvant via intraperitoneal injection. Two weeks later, mice were orally administered with 50 mg of OVA on every other day for a total of five times. 1 μg of α-CGRP peptide was administered simultaneously when indicated. Mice were deprived of food for 3-4 hours in cages with wood chip bedding for limiting antigen degradation in the stomach before each intragastric challenge.
Isolation of cells from Peyer's patches (PPs). Peyer's patches (PPs) were carefully dissected from the small intestine under a stereo microscope using a fine scissor, pierced once with a fine forcep. Tissues were digested in freshly made digestion buffer (RPMI-1640 containing 100 μg/ml Liberase™ and 50 μg/ml DNase I at 37° C. on a roto-mixer. After 15 min, tissues were very gently mixed using a 1 ml pipette. The supernatant was collected and added to ice-cold MACS buffer (pH 7.4; PBS plus 2% FCS and 2 mM EDTA). Pre-warmed (37° C.) fresh digestion buffer was added to the remaining tissues. After rotation at 37° C. for 15 min, the mixture was vigorously mixed using a 1 ml pipette for 1 min. Supernatants from the two steps were combined and passed through 70 μm filters and stained for FACS (below).
Isolation of cells from the lamina propria (LP). The small intestines were opened longitudinally and washed in ice-cold PBS. For scRNA-seq, roughly 0.5 cm of fragments from each of the distal, middle and proximal regions without visible PPs were collected. Epithelial cells were dissociated by tissue rotation in pre-warmed (37° C.) PBS containing 10 mM EDTA at 37° C. for 15 min, followed by additional incubation on ice for 15 min. Tissues were then shaken vigorously. […]

B1: OVA (protein, UniProt P01012 2-386, looked up)
Ovalbumin: GSIGAASMEFCFDVFKELKVHHANENIFYCPIAIMSALAMVYLGAKDSTRTQINKVVRFDKLPGFGDSIEAQCGTSVNVHSSLRDILNQITKPNDVYSFSLASRLYAEERYPILPEYLQCVKELYRGGLEPINFQTAADQARELINSWVESQTNGIIRNVLQPSSVDSQTAMVLVNAIVFKGLWEKAFKDEDTQAMPFRVTEQESKPVQMMYQIGLFRVASMASEKMKILELPFASGTMSMLVLLPDEVSGLEQLESIINFEKLTEWTSSNVMEERKIKVYLPRMKMEEKYNLTSVLMAMGITDVFSSSANLSGISSAESLKISQAVHAAHAEINEAGREVVGSAEAGVDAASVSEEFRADHPFLFCIKHIATNAVLFFGRCVSP
In the case of B1, the “H2-T23: percentage of expressing cells in OVA-treated group” value is reported as 0.264, the “Herpud1: percentage of expressing cells in OVA-treated group” value is reported as 0.33 and the “Icos: percentage of expressing cells in OVA-treated group” value is reported as 0.236. The “Il2ra: percentage of expressing cells in OVA-treated group” value was 0.457, the “Il18r1: percentage of expressing cells in OVA-treated group” value was 0.605 and the “Irf2: percentage of expressing cells in OVA-treated group” value was 0.306. The “Irs2: percentage of expressing cells in OVA-treated group” value was 0.149, the “Itgav: percentage of expressing cells in OVA-treated group” value was 0.175 and the “Klf13: percentage of expressing cells in OVA-treated group” value was 0.417. The “Klrk1: percentage of expressing cells in OVA-treated group” value was 0.133, the “Leng9: percentage of expressing cells in OVA-treated group” value was 0.128 and the “Map3k14: percentage of expressing cells in OVA-treated group” value was 0.133. The “Mast4: percentage of expressing cells in OVA-treated group” value was 0.467, the “Mbnl2: percentage of expressing cells in OVA-treated group” value was 0.162 and the “Minos1: percentage of expressing cells in OVA-treated group” value was 0.768. The “Morf4l2: percentage of expressing cells in OVA-treated group” value was 0.317, the “Neat1: percentage of expressing cells in OVA-treated group” value was 0.502 and the “Nedd8: percentage of expressing cells in OVA-treated group” value was 0.781. For the same molecule, the “Plekhg1: percentage of expressing cells in OVA-treated group” value was 0.231, the “Ppp1r16b: percentage of expressing cells in OVA-treated group” value was 0.302 and the “Ppp2ca: percentage of expressing cells in OVA-treated group” value was 0.336. For the same molecule, the “Ptger2: percentage of expressing cells in OVA-treated group” value was 0.299, the “Ptpn7: percentage of expressing cells in OVA-treated group” value was 0.337 and the “Raf1: percentage of expressing cells in OVA-treated group” value was 0.232. For the same molecule, the “Ramp3: percentage of expressing cells in OVA-treated group” value was 0.224, the “Rassf5: percentage of expressing cells in OVA-treated group” value was 0.31 and the “Rcn2: percentage of expressing cells in OVA-treated group” value was 0.258. The “Rel: percentage of expressing cells in OVA-treated group” value was 0.19, the “Rgs1: percentage of expressing cells in OVA-treated group” value was 0.498 and the “Rgs3: percentage of expressing cells in OVA-treated group” value was 0.282. For the same molecule, the “Rnf19b: percentage of expressing cells in OVA-treated group” value was 0.427, the “Rpa3: percentage of expressing cells in OVA-treated group” value was 0.175 and the “S100a6: percentage of expressing cells in OVA-treated group” value was 0.603. For the same molecule, the “S100a10: percentage of expressing cells in OVA-treated group” value was 0.866, the “Saraf: percentage of expressing cells in OVA-treated group” value was 0.557 and the “Sat1: percentage of expressing cells in OVA-treated group” value was 0.744. The “Scn1b: percentage of expressing cells in OVA-treated group” value was 0.314, the “Sec11a: percentage of expressing cells in OVA-treated group” value was 0.376 and the “Serpina3g: percentage of expressing cells in OVA-treated group” value was 0.587. The “Serpinb6b: percentage of expressing cells in OVA-treated group” value was 0.2, the “Ssna1: percentage of expressing cells in OVA-treated group” value was 0.294 and the “Taf7: percentage of expressing cells in OVA-treated group” value was 0.144. For the same molecule, the “Taf10: percentage of expressing cells in OVA-treated group” value was 0.297, the “Tagap: percentage of expressing cells in OVA-treated group” value was 0.461 and the “Tcrg-C1: percentage of expressing cells in OVA-treated group” value was 0.36. For the same molecule, the “Tgoln1: percentage of expressing cells in OVA-treated group” value was 0.286, the “Timm13: percentage of expressing cells in OVA-treated group” value was 0.592 and the “Tnf: percentage of expressing cells in OVA-treated group” value was 0.245. The “Trim8: percentage of expressing cells in OVA-treated group” value was 0.223, the “Trps1: percentage of expressing cells in OVA-treated group” value was 0.17 and the “Tsc22d3: percentage of expressing cells in OVA-treated group” value was 0.489. The “Tspan32: percentage of expressing cells in OVA-treated group” value was 0.395, the “Ttc19: percentage of expressing cells in OVA-treated group” value was 0.152 and the “Tuba4a: percentage of expressing cells in OVA-treated group” value was 0.156. For the same molecule, the “Tubb4b: percentage of expressing cells in OVA-treated group” value was 0.347, the “Txk: percentage of expressing cells in OVA-treated group” value was 0.529 and the “Vegfa: percentage of expressing cells in OVA-treated group” value was 0.131. The “VgIl4: percentage of expressing cells in OVA-treated group” value was 0.338, the “Zc3hav1: percentage of expressing cells in OVA-treated group” value was 0.145 and the “Zfand5: percentage of expressing cells in OVA-treated group” value was 0.252. The “1600014C10Rik: LN (average fold change)” value (OVA vs PBS) was 0.467, the “2010300C02Rik: LN (average fold change)” value (OVA vs PBS) was 0.310 and the “2310001H17Rik: LN (average fold change)” value (OVA vs PBS) was 0.484. For the same molecule, the “4921524J17Rik: LN (average fold change)” value (OVA vs PBS) was 0.531, the “Alyref: LN (average fold change)” value (OVA vs PBS) was −0.564 and the “Amd1: LN (average fold change)” value (OVA vs PBS) was −0.353. The “Asb2: LN (average fold change)” value (OVA vs PBS) was 0.320, the “Azin1: LN (average fold change)” value (OVA vs PBS) was −0.472 and the “Bin3: LN (average fold change)” value (OVA vs PBS) was 0.452. The “Bzw1: LN (average fold change)” value (OVA vs PBS) was −0.190, the “Cacybp: LN (average fold change)” value (OVA vs PBS) was 0.291 and the “Cd69: LN (average fold change)” value (OVA vs PBS) was −0.153. The “Cdkn1a: LN (average fold change)” value (OVA vs PBS) was −0.202, the “Clec2d: LN (average fold change)” value (OVA vs PBS) was 0.489 and the “Cwc25: LN (average fold change)” value (OVA vs PBS) was −0.463.
